Source: the supplement of paper PMC9170038
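Also: bound reporter read as fluorescence of individual clusters on recovered sequencing chips by microscopy, with normalized cluster intensities fitted with a binding model.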

Each sequence was assayed on K4 kissing-loop RNA reporter (assay: apparent KD of K4 kissing-loop reporter; higher = weaker reporter binding). Settings: Eterna round: R107; input ligand: arginine 13.2 mM.
Description: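 RNA-MaP round R107: designed RNA switches with theophylline, tryptophan, arginine or FMN aptamers are transcribed on-chip within common flanks. They are titrated with a labelled K4 kissing-loop RNA reporter in RNA-MaP buffer (100 mM Tris pH 7.5, 80 mM KCl, 4 mM MgCl2), without ligand or with the indicated ligand. Median apparent KD per design.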
In the case of “GUUGUCUACCAGAGGUGAUGUAUAGUAUCGCGAGGACCGGUACGGCCGCCACUCGUGAAGAGAAAGGAGUGAUGUUCCGUAAUGG [C10]”, the “apparent KD of K4 kissing-loop reporter” value is reported as 271 nM.
With “AUUUAAUUAACUGAUACCAGACUUUUUGUUUUGUAUAUUACUAGUGAUGUUAGUGUUUCUGUCCCUUGGCAGCAGUAUCUACUUA [JR_ExcTheophyB_Sub016]” the “apparent KD of K4 kissing-loop reporter” value was 252 nM.
With “GCCGUAGAUGGAAGGAGCGUGGUCUAGAAGCACAAGUGAUGUUUGUGGUAACCUUCUGACCCACAGGUAGGUCGCCAUCUACGGC” the “apparent KD of K4 kissing-loop reporter” value was 78.4 nM.
“AUGUAUAUCUCAGGAUAUAUAUGUGUGUGGUGUAUACAUAGUGAUGUUGUGUAUAUCCACAUAUGUAUAGAAGGGAGAUGUGCAU [Skye_SS_FMNB]” was tested, and the “apparent KD of K4 kissing-loop reporter” value was 73.5 nM.
“GGACGACAGUCGGCCGCCACUCACAGCCGAGUGAUGUUCGGGAUUGUAGCGGAGUGAUGUUUCGCGAGGACCGGGACUGCAGUCC [Same State Typtophan B GF 27]” was tested, and the “apparent KD of K4 kissing-loop reporter” value was 166 nM.
With “AGAGAGGUGUUUUUUUGAUGUGAGUAAUGGCGAGGACCGGUACGGCCGCCACUCGGGUGAUGUUAGUGAUGUUGAUGUAGUGAUG [p'pmullin]” the “apparent KD of K4 kissing-loop reporter” value was 66.6 nM.
With “UGUAUGUGAUUUGAUACCAGACCAGCUGGUGUUAGAUGAGUGAUGUUGAUCUAGGGUUGGGUCCCUUGGCAGCAAAUCGCAUACU [KL-SSTheoB22]” the “apparent KD of K4 kissing-loop reporter” value was 391 nM.
“CAAGGACGGCCGUAGGCAUACCGUCGAUUCAAGGAUAUCAAGAGAAUGAGAAGGUGAAGUUUAUACAGUGAUGUUGCUAUAGAGA [theeternabot_sameState_KL_FMN_A_6]” was tested, and the “apparent KD of K4 kissing-loop reporter” value was 122 nM.
In the case of “AGACUACCUACACUGUCAAUAGACAGUGACUAGGAUAUGCUGAUAAGCAGAAGGAGUGAUGUUCCUAAUAAAAGGUGGUAGUCAU [FmnAX 19 #SwitchBubble #StaticStem #K4Early]”, the “apparent KD of K4 kissing-loop reporter” value is reported as 258 nM.
With “UGACUGGAUGGAAGGAGCGCUAAACUCCUAGUGAUGUUAGGGAUACGAGACAAAGUCUUGAAGCAGGUAGGUCGCCAUCUAGUCU [FiskerMod 10 - Jieux - Same State - Arginine B]” the “apparent KD of K4 kissing-loop reporter” value was 124 nM.
With “GCCUAGCAGGGAAGGAGCGCCAGGAGAAGAAAUGGAGAGAGUUGAGUGAUGUUCAAAUGGUGGCAGGUAGGUCGCCCUGCUAGGC [KL-SSArg B12]” the “apparent KD of K4 kissing-loop reporter” value was 298 nM.
With “GACGGGUUGCUGCUCAAUCCGUCGCAUGAUCGAGGACCGGUACGGCCGCCACUCGAGGCCAUGCCGUACGAGUGAUGUUCGUGCG [Xeerlaus]” the “apparent KD of K4 kissing-loop reporter” value was 327 nM.
In the case of “AUGCGCGCGGCGGCCGCCACUCGCAUGAGAGUGAUGUUCUCGCCGGGCCCGCAAGGGCCCGGUGUGAGGACCGGGCCGGGCUGCG [#2 Same State - Tryptophan B Attempt #18 (HarryS)]”, the “apparent KD of K4 kissing-loop reporter” value is reported as 0.441 nM.
In the case of “GUUCGAUUCUGAGUGAUGUUGAGAAUUGAGAAGGAUAUCCAGAAAAGGAGAAGGUCUACGUCAUGCGCCUCGAUUUGCUAGCUGC [theeternabot_exclusion_KL_FMN_A_50]”, the “apparent KD of K4 kissing-loop reporter” value is reported as 567 nM.
For “UGGCGGACGAUCCGGAGUGAUGUUCCGGAUACCAGCAGAAGAGCCUGCCCUUGGCAGCCGUGCGACGCUGGGAGAGUCCGGCGUC [Requered]”, the “apparent KD of K4 kissing-loop reporter” value was 88 nM.
With “GAAUUAUGUAGAAGGAGCGUUAGAAGGUAUAGGUGCGAGUGAUGUUUGGAUUUGUUAAUUUGACAGGUAGGUCGCUACAGAAGGA [KL-SSArg B18 #analogue]” the “apparent KD of K4 kissing-loop reporter” value was 259 nM.
For “AAAUUCUUUUUUUUAUUUAACUUUUCAGAAGGAGCGUGGUAGUACACAGGUAGGUCGCUGAAUUUUAGACUAGUGAUGUUAGUUA [JR_SSArginiA_Sub008]”, the “apparent KD of K4 kissing-loop reporter” value was 156 nM.
For “CGUCGGUAGUGAUGUUGCCACGACGCUUUUAAGGAUAUAAGCUAAGUUAGAAGGUAAGAGAGUCAGCCCGGUGGCCUUAGAGUAG [theeternabot_exclusion_KL_FMN_A_17]”, the “apparent KD of K4 kissing-loop reporter” value was 186 nM.
“AGUUCUUGCCGAAGGAGCGAGGCAGAGUGAUGUUCUGCAAGAGGUCGAAAGACCUCACUGCCUCAGGUAGGUCGCGGCAUGAACA [Omei KL Arginine B Exc A v4]” was tested, and the “apparent KD of K4 kissing-loop reporter” value was 509 nM.
For “AAGCGUAAAAUGGCGGACAUACUGCUCCCACGAGGACCGGUACGGCCGCCACUCGAAUGCGGCAGUGAUGUUGCCGCCUUAGCGU [KL-XTryp-A19]”, the “apparent KD of K4 kissing-loop reporter” value was 77.5 nM.
For “GGUAGCAUGGCGGCCGCCACUAAGAGAGUGAUGUUCUCUUAGUUUUUUGAUAUAUUAUCAAUUCUUAGGACCGGGCCAUGCUACC”, the “apparent KD of K4 kissing-loop reporter” value was 79.9 nM.
“CCCGUACCAGUGAUGUUGGUAUGGUCUGAUACCAGUCUGUAGUCGGGCCCUUGGCAGCAGACCCUUGCCAAGGUGACGACUCCGG [Qu]” was tested, and the “apparent KD of K4 kissing-loop reporter” value was 146 nM.
“GCAACAUUGGUAGGAUAUCAUUCUGAGUGAUGUUCAGGGUUCAGCUAACGAAAGUUAGUUGUACCAUGAGAAGGGCUAAUGUUGC [Omei KL FMN B SS A v5]” was tested, and the “apparent KD of K4 kissing-loop reporter” value was 711 nM.
For “UGCUGGUCAUAGCGUAGUGUGAGCCGCUCACGAGGACCGGUACGGCCGCCACUCGUUACAAAGCAGUGAUGUUGCAAUAGGCUCU [theeternabot_sameState_KL_Trp_A_24]”, the “apparent KD of K4 kissing-loop reporter” value was 407 nM.

Same assay, conditions: Eterna round: R107; input ligand: none
In the case of “GGAUAGGACAGAGGAUAUGGCAGUCUACAAAGUAGGCUGAAAUAAAUCCUUGAAUGGAGUGAUGUUCCAGAAGGCUGUCCUAUCG [FmnBX 23 #SwitchBubble #StaticStem #Palindromic]”, the “apparent KD of K4 kissing-loop reporter” value is reported as 158 nM.
In the case of “AGGCACGAGCAAGGAUAUCGAGUAGAGUGAUGUUCUGCCUGGGUUGGCUCGAAAGGGCCUUCCCAGCGAGAAGGUGCUCGUGCCU [#2 Same State - FMN A Attempt #14 (HarryS)]”, the “apparent KD of K4 kissing-loop reporter” value is reported as 300 nM.
In the case of “AAUAACUAGUAUAUUUUUAAUAAUACAGAUACCAGUGAUAAUAGACACCCUUGGCAGCUGAUCGAGUGAUGUUCGUUUAUUUUAA [#11 K4 Theophylline A Same State]”, the “apparent KD of K4 kissing-loop reporter” value is reported as 85 nM.
In the case of “GGUGGCGUUGUUGACAGCUCACCACGAGCCAAGGAUAUAGUUUCUUCUAGAAGGUGGAAUGACAAGUGAUGUUUGUACGACUGCU [theeternabot_exclusion_KL_FMN_A_28]”, the “apparent KD of K4 kissing-loop reporter” value is reported as 254 nM.
In the case of “AGCUAUUAGACGGCCGCCACUUGCUCUGAGACCUGACAUGGAACCAGUGAUGUUGGUUUGCGUGUAAGGACCGGGUUUGGUGGCG [Tiesbi]”, the “apparent KD of K4 kissing-loop reporter” value is reported as 99.1 nM.
With “UGUAAGCGCGUAGAUACCAGCAGACGAGUGAUGUUCGAGAGAUUAAGGAAAAGAAAGUAAUGCCCUUGGCAGCUAAUCAUAAGCG [whbob_Ex_Theo_B_sa94]” the “apparent KD of K4 kissing-loop reporter” value was 264 nM.
For “GAUUCAGUGAUGUUGGAAGGCGAGCGGGAUACCAGCCGAGACUCAGGCCCUUGGCAGCCCACAUAUCCCAGGUAGAUAGUAGAUC [Same State - Theophylline A (Freestyle 8)]”, the “apparent KD of K4 kissing-loop reporter” value was 129 nM.
“GUGCAGUGAUGUUGCACGAGGAAAGACGAUACCAGCCGUAAAUAAGGCCCUUGGCAGCGUGGGCUAGCACAAAAUAUGCUAGUCU [Laleingeat]” was tested, and the “apparent KD of K4 kissing-loop reporter” value was 107 nM.
With “GUUGUCUACCAGAGGUGAUGUAUAGUAUCGCGAGGACCGGUACGGCCGCCACUCGUGAAGAGAAAGGAGUGAUGUUCCGUAAUGG [C10]” the “apparent KD of K4 kissing-loop reporter” value was 293 nM.
For “AUUUAAUUAACUGAUACCAGACUUUUUGUUUUGUAUAUUACUAGUGAUGUUAGUGUUUCUGUCCCUUGGCAGCAGUAUCUACUUA [JR_ExcTheophyB_Sub016]”, the “apparent KD of K4 kissing-loop reporter” value was 225 nM.
“GCCGUAGAUGGAAGGAGCGUGGUCUAGAAGCACAAGUGAUGUUUGUGGUAACCUUCUGACCCACAGGUAGGUCGCCAUCUACGGC” was tested, and the “apparent KD of K4 kissing-loop reporter” value was 85.7 nM.
In the case of “AUGUAUAUCUCAGGAUAUAUAUGUGUGUGGUGUAUACAUAGUGAUGUUGUGUAUAUCCACAUAUGUAUAGAAGGGAGAUGUGCAU [Skye_SS_FMNB]”, the “apparent KD of K4 kissing-loop reporter” value is reported as 73.9 nM.
With “GGACGACAGUCGGCCGCCACUCACAGCCGAGUGAUGUUCGGGAUUGUAGCGGAGUGAUGUUUCGCGAGGACCGGGACUGCAGUCC [Same State Typtophan B GF 27]” the “apparent KD of K4 kissing-loop reporter” value was 184 nM.
For “AGAGAGGUGUUUUUUUGAUGUGAGUAAUGGCGAGGACCGGUACGGCCGCCACUCGGGUGAUGUUAGUGAUGUUGAUGUAGUGAUG [p'pmullin]”, the “apparent KD of K4 kissing-loop reporter” value was 71.1 nM.
With “UGUAUGUGAUUUGAUACCAGACCAGCUGGUGUUAGAUGAGUGAUGUUGAUCUAGGGUUGGGUCCCUUGGCAGCAAAUCGCAUACU [KL-SSTheoB22]” the “apparent KD of K4 kissing-loop reporter” value was 557 nM.
For “CAAGGACGGCCGUAGGCAUACCGUCGAUUCAAGGAUAUCAAGAGAAUGAGAAGGUGAAGUUUAUACAGUGAUGUUGCUAUAGAGA [theeternabot_sameState_KL_FMN_A_6]”, the “apparent KD of K4 kissing-loop reporter” value was 168 nM.
